# Source: article PMC3372476
# Biological target: Src-YN (mouse)
# Assay: split reporter (BiFC, NanoBiT); BiFC with YFP fragments YC (155-238) and YN (1-154) in co-transfected CHO-K1 cells on fibronectin-coated coverslips; whole cells, fixed (also live cells and TIRFM), wide-field fluorescence; cells scored as background, ER + punctate or only punctate
substance,measurement,value
YC-PTP1BWT (from UniProt P18031 1-435) (enzyme),% of cells with BiFC signal (ER + punctate),86%
same,% of cells with BiFC signal (only punctate),14%
